Test results as given in doi:10.1101/2020.05.06.080465.

Biological target: 19S proteasomal subunit (human (endogenous in HeLa))
Assay: SEC

“ubiquitin receptor ADRM1 (from UniProt Q16186 1-407) (natural protein)” was tested. Which percent of the ADRM1 signal associated with 19S did it give?
Its percent of the ADRM1 signal associated with 19S is 15%.
